# Measurements from PMC8068667 (Nature, 2021).
# Biological target: RIFIN PF3D7_1373400 V2 domain, soluble recombinant (P. falciparum 3D7, UniProt C0H5N9)
# Assay: cryo-EM structure
binder,measurement,value
"MDB1 Fab (LILRB1 D3D4-containing antibody Fab) (Fab, V domains shown) VH: QITLKESGPTLVERTQTLTLTCTFSGFSLTTDGLGVGWIRQPPGKALEWLALIYYDDVRRYRPSLKSRLTITKDTSKNRVVLTVTDMDPVDAGTYFCVHASLFNLGSRNVYFRYWGQGTLVSVSS VL: SYDLTQPPSVSVSPGQTARITCSGDSLARQFASWYQQKPGQSPVLLIYKNIERLSAIPERFSGSTSGTSVTLTISGVQAEDEADYFCQSADDSGSYSLFGTGTRVSVL",binding result,binds
